PMC6305486, “Structural Insights into the FtsQ/FtsB/FtsL Complex, a Key Component of the Divisome” (Scientific Reports, 2018)

Legend:
Settings in all cases: both partners purified
FtsQ_(50–276) [1] = target: T1, FtsQ_(50–276) (E. coli, UniProt P06136 50-276); test: SEC; analytical gel filtration, Superdex 200 10/300 GL, buffer B (20 mM Tris-HCl pH 8.0, 200 mM NaCl), 0.5 mL/min; high concentrations (101–370 μM); apparent Stokes radius compared with radii calculated from models
T1 construct: pET21a; also called periplasmic domain of FtsQ; WT FtsQ; source: for the complexes purified together with its partners from mixed cell pellets

FtsQ_(50–276) [2] = target: T1, FtsQ_(50–276); test: BLI; BLItz; GST-fused FtsB proteins or GST-e5-FtsB/k5-FtsL complexes immobilised on AR2G biosensor by amine coupling; FtsQ_(50–276) (WT or Y248A) in solution, 0.1–80 μM; running buffer 20 mM Tris-HCl pH 8.0, 200 mM NaCl; equilibrium analysis of points at 100 s
e5-FtsB_(25–103) = target: T2, e5-FtsB_(25–103) (E. coli, UniProt P0A6S5 25-103); test: SEC; analytical gel filtration, Superdex 200 10/300 GL, buffer B (20 mM Tris-HCl pH 8.0, 200 mM NaCl), 0.5 mL/min; high concentrations (101–370 μM); apparent Stokes radius compared with radii calculated from models
T2 chain: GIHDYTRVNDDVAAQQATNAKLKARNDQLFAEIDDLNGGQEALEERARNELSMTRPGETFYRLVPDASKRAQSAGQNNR

T1 sequence (P06136 50-276): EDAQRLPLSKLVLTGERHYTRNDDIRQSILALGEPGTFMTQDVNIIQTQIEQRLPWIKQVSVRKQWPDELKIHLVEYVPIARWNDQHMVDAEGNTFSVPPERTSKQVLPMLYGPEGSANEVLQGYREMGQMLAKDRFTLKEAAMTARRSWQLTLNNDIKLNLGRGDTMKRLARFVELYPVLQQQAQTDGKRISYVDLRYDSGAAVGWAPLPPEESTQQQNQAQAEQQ

B1: FtsB_(25–103) L46P (domain or fragment, E. coli, UniProt P0A6S5 25-103, looked up)
chain: GIHDYTRVNDDVAAQQATNAKPKARNDQLFAEIDDLNGGQEALEERARNELSMTRPGETFYRLVPDASKRAQSAGQNNR
notes: also called FtsQB L46P mutant
Does B1 bind (FtsQ_(50–276) [1])?
Result: binds

B2: GST-fused FtsB_(61–103) (domain or fragment, E. coli, UniProt P0A6S5 61-103, looked up)
chain: NGGQEALEERARNELSMTRPGETFYRLVPDASKRAQSAGQNNR
notes: pGST2; source: E. coli BL21 (DE3), purified (glutathione-Sepharose, gel filtration); not shown: GST, N-terminal, kept
B2 was tested. Which Kd (FtsQ_(50–276) [2]) did it give?
The Kd was 900 nM.

B3: GST-fused FtsB_(25–103) (domain or fragment, E. coli, UniProt P0A6S5 25-103, looked up)
chain: GIHDYTRVNDDVAAQQATNAKLKARNDQLFAEIDDLNGGQEALEERARNELSMTRPGETFYRLVPDASKRAQSAGQNNR
notes: as for B2
B3 was tested. Which Kd (FtsQ_(50–276) [2]) did it give?
Its Kd is 670 nM.

B4: k5-FtsL_(64–121) (domain or fragment)
chain: TAQREQLVLERDALDIEWRNLILEENALGDHSRVERIATEKLQMQHVDPSQENIVVQK
Which “stoichiometry N” value (e5-FtsB_(25–103)) does the source give for B4 here?
Its value is 1 FtsB:FtsL ratio (2:2).
